According to paper PMC4748815 (RNA, 2016):
Like-named read-outs stand apart in the source and are kept apart here.

T1: His6-tagged mouse GYF2 (mouse, UniProt Q6Y7W8 1-1291)
T1 sequence (looked up): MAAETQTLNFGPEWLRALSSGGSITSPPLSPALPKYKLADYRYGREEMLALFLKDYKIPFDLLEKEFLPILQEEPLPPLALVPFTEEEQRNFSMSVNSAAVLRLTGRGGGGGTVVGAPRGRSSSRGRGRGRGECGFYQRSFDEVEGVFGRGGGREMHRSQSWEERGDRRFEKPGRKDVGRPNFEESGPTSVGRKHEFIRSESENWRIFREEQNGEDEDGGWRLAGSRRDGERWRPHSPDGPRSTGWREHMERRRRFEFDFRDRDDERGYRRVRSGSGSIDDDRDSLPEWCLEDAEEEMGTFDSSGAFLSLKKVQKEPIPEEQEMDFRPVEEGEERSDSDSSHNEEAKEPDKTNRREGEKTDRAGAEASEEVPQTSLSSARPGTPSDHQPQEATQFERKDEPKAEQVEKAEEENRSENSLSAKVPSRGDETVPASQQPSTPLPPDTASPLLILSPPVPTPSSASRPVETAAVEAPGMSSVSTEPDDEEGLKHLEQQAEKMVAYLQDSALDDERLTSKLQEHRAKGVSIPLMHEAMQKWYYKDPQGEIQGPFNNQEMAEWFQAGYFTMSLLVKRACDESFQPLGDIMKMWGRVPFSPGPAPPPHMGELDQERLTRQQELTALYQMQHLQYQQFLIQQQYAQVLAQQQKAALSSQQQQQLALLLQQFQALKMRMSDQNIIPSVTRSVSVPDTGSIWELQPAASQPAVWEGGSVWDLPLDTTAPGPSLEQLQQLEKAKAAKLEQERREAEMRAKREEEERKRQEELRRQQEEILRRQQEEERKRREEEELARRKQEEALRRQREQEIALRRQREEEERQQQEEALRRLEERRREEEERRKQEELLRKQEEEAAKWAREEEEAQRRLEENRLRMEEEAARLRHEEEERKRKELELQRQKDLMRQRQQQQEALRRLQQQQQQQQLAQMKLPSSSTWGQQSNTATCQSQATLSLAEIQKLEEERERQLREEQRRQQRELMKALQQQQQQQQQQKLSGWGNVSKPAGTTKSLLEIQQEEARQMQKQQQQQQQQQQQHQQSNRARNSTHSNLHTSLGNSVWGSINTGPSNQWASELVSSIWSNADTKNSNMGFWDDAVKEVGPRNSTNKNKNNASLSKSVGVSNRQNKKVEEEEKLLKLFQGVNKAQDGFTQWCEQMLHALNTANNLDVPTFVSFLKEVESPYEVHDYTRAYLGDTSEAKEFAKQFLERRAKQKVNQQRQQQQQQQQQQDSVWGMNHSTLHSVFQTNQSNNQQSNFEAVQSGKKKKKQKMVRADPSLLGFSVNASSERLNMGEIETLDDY

B1: GST-tagged mouse TTP (natural protein, UniProt P22893 1-319, looked up)
chain: MDLSAIYESLQSMSHDLSSDHGGTESLGGLWNINSDSIPSGVTSRLTGRSTSLVEGRSCGWVPPPPGFAPLAPRPGPELSPSPTSPTATPTTSSRYKTELCRTYSESGRCRYGAKCQFAHGLGELRQANRHPKYKTELCHKFYLQGRCPYGSRCHFIHNPTEDLALPGQPHVLRQSISFSGLPSGRRSSPPPPGFSGPSLSSCSFSPSSSPPPPGDLPLSPSAFSAAPGTPVTRRDPNQACCPSCRRSTTPSTIWGPLGGLARSPSAHSLGSDPDDYASSGSSLGGSDSPVFEAGVFGPPQTPAPPRRLPIFNRISVSE

Experiments:
Assay in all cases: pull-down
[1] = target: B1
[2] = target: T1, His6-tagged mouse GYF2
[3] = target: T1, His6-tagged mouse GYF2; remark: listed apart in the source

Row | binding result [1] | binding result [2] | binding result [3] | Binder
1 | binds | binds |  | His6-tagged mouse 4EHP (natural protein, UniProt Q8BMB3 1-245, looked up) MNNKFDALKDDDSGDHDQNEENSTQKDGEKEKTDRDKSQSSGKRKAVVPGPAEHPLQYNYTFWYSRRTPGRPTSSQSYEQNIKQIGTFASVEQFWKFYSHMVRPGDLTGHSDFHLFKEGIKPMWEDDANKNGGKWIIRLRKGLASRCWENLILAMLGEQFMVGEEICGAVVSVRFQEDIISIWNKTASDQATTARIRDTLRRVLNLPPNTIMEYKTHTDSIKMPGRLGPQRLLFQNLWKPRLNVP
2 |  |  | binds | B1
